Read-outs that look alike come from different tables or passages of the source.
Assays:
Type in all cases: binding, human
[1] = test system: matrix-associated (LTBP1/LTBP3) and cell-associated (GARP/LRRC33) proTGFβ1 complexes; assay: Octet: average KD and fold bias, matrix- vs cell-associated complexes; conditions: for Kd: average KD of (E) and (F), cell-associated complexes, read-out: (G) Cell AVRG; for (H) G/D (fold bias): ratio of average KD cell-associated / matrix-associated
From the text: Column (A) of the table lists monoclonal antibodies with discrete amino acid sequences. […] Columns (B), (D), (E) and (F) provide affinities of each of the listed antibodies, measured in KD. […] Average KD values of (B) and (C) are shown in the corresponding column (D), which collectively represents affinities of the antibodies to ECM- or matrix-associated proTGFβ1 complexes. Similarly, Average KD values of (E) and (F) are shown in the corresponding column (G), which collectively represents affinities of the antibodies to cell-surface or cell-associated proTGFβ1 complexes. Finally, relative ratios between the average KD values from columns (D) and (G) are expressed as “fold bias” in column (H). […] This is one way of quantitatively representing and comparing inherent bias of antibodies to their target complexes.
Average KD values between the two matrix-associated and cell-associated complexes are calculated, respectively (see columns (D) and (G)). These average KD values can then be used to ask whether bias in binding activities exists between complexes associated with matrix vs. complexes associated with cell surface (e.g., immune cells). Bias may be expressed as “fold-difference” in the average KD values, as illustrated in Table 8.

[2] = test system: matrix-associated (LTBP1/LTBP3) and cell-associated (GARP/LRRC33) proTGFβ1 complexes; assay: as above; conditions: average KD of (B) and (C), read-out: (D) ECM AVRG
[3] = test system: hLTBP1-/hLTBP3-proTGFβ1 vs hGARP-/hLRRC33-proTGFβ1 complexes; assay: Solution equilibrium titration: relative affinity (bias) LTBP complexes vs cell-associated complexes; conditions: for Kd / (H) G/D (fold bias): MSD-SET; for (H) G/D (fold bias): ratio of average KD cell-associated / matrix-associated
From the text: Context-biased: As used herein, “context-biased antibodies” refer to a type of conformational antibodies that binds an antigen with differential affinities when the antigen is associated with (i.e., bound to or attached to) an interacting protein or a fragment thereof. Thus, a context-biased antibody that specifically binds an epitope within proTGFβ1 may bind LTBP1-proTGFβ1, LTBP3-proTGFβ1, GARP-proTGFβ1 and LRRC33-proTGFβ1 with different affinities. […] Relative affinities of [matrix-associated complexes]: [cell-associated complexes] may be obtained by taking average KD values of the former, taking average KD values of the latter, and calculating the ratio of the two, as exemplified herein.
In a yet further aspect, the present disclosure provides context-biased TGFβ1 inhibitors. The context-biased antibodies include LTBP-biased antibodies with higher affinities for ECM-associated LLCs than for cell-associated LLCs wherein the affinities are measured at equilibrium.

[4] = average KD of (E) and (F), read-out: (G) Cell AVRG
[5] = average KD of (B) and (C), read-out: (D) ECM AVRG

Molecule | Kd [1] | (H) G/D (fold bias) [1] | Kd [2] | matrix/LTBP-bias in relative affinities between at least one matrix-associated and at least one cell-associated complex [3] | Kd [3, 4] | (H) G/D (fold bias) [3] | Kd [3, 5] | average affinity for human LTBP1-/LTBP3-proTGFβ1 relative to human GARP-/LRRC33-proTGFβ1 complexes (LTBP-biased) ([3]; solution equilibrium titration)
Ab11: monoclonal antibody; VH SEQ ID NO: 239, VL SEQ ID NO: 241 (antibody, V domains shown) VH: EVQLLESGGGLVQPGGSLRLSCAASGFTFRNYAMSWVRQAPGKGLEWVSSISGSGGATYYADSVKGRFTISRDNSKNTLYLQMNSLRAEDTAVYYCARVSSGHWDFDYWGQGTLVTVSS VL: DIQLTQSPSSLSASVGDRVTITCRASQSISSYLNWYQQKPGKAPKLLIYAASNLQSGVPSRFSGSGSGTDFTLTISSLQPEDFATYYCQQTYTVPLTFGGGTKVEIK | 0.699 nM | 4.352 fold | 0.161 nM | more than five-fold | 4.65 nM | 3.87 fold | – | –
Ab20: monoclonal antibody; VH SEQ ID NO: 251, VL SEQ ID NO: 241 (antibody, V domains shown) VH: EVQLLESGGGLVQPGGSLRLSCAASGFTFSAYAMTWVRQAPGKGLEWVSAISGSGGVTYYADSVKGRFTISRDNSKNTLYLQMNSLRAEDTAVYYCARVSSGHWDYDYWGQGTLVTVSS VL: DIQLTQSPSSLSASVGDRVTITCRASQSISSYLNWYQQKPGKAPKLLIYAASNLQSGVPSRFSGSGSGTDFTLTISSLQPEDFATYYCQQTYTVPLTFGGGTKVEIK | 0.715 nM | 4.424 fold | 0.162 nM | more than five-fold | – | 6.75 fold | 0.2 nM | proTGFβ1 and LTBP3-proTGFβ1 complexes is at least five-fold
Ab12: monoclonal antibody; VH SEQ ID NO: 237, VL SEQ ID NO: 241 (antibody, V domains shown) VH: QVQLVESGGGVVQPGRSLRLSCAASGFTFSDYAMVWVRQAPGKGLEWVSAISGSGFTTYYADSVKGRFTISRDNSKNTLYLQMNSLRAEDTAVYYCARVSSGHWDFDYWGQGTLVTVSS VL: DIQLTQSPSSLSASVGDRVTITCRASQSISSYLNWYQQKPGKAPKLLIYAASNLQSGVPSRFSGSGSGTDFTLTISSLQPEDFATYYCQQTYTVPLTFGGGTKVEIK | 3.89 nM | 22.897 fold | 0.17 nM | – | 2.45 nM | 3.40 fold | 0.72 nM | –
Ab22: monoclonal antibody; VH SEQ ID NO: 130, VL SEQ ID NO: 15 (antibody, V domains shown) VH: EVQLVESGGGLVQPGGSLRLSCAASGFTFGSFSMNWVRQAPGKGLEWVSYIHSDASTIYYADSVKGRFTISRDNAKNSLYLQMNSLRAEDTAVYYCARGVLDYGDMLDPWGQGTLVTVSS VL: DIQMTQSPSSLSASVGDRVTITCQASQDITNYLNWYQQKPGKAPKLLIYDASNLETGVPSRFSGSGSGTDFTFTISSLQPEDIATYYCQQADNHPPWTFGGGTKVEIK | 0.695 nM | 2.147 fold | 0.324 nM | – | 0.114 nM | 2.71 fold | 0.042 nM | –
Ab30: monoclonal antibody; VH SEQ ID NO: 138, VL SEQ ID NO: 15 (antibody, V domains shown) VH: EVQLVESGGGLVQPGGSLRLSCAASGFTFSSFSMDWVRQAPGKGLEWVSYISPDASTIYYADSVKGRFTISRDNAKNSLYLQMNSLRAEDTAVYYCARGTLDYGDMLDPWGQGTLVTVSS VL: DIQMTQSPSSLSASVGDRVTITCQASQDITNYLNWYQQKPGKAPKLLIYDASNLETGVPSRFSGSGSGTDFTFTISSLQPEDIATYYCQQADNHPPWTFGGGTKVEIK | 0.684 nM | 2.307 fold | 0.296 nM | – | 0.081 nM | 2.80 fold | 0.029 nM | –
Ab33: monoclonal antibody; VH SEQ ID NO: 141, VL SEQ ID NO: 15 (antibody, V domains shown) VH: EVQLVESGGGLVQPGGSLRLSCAASGFTFSSFSMNWVRQAPGKGLEWVSYISPSADTIYYADSVKGRFTISRDNAKNTLYLQMNSLRAEDTAVYYCAHGVLDYGDMLDPWGQGTLVTVSS VL: DIQMTQSPSSLSASVGDRVTITCQASQDITNYLNWYQQKPGKAPKLLIYDASNLETGVPSRFSGSGSGTDFTFTISSLQPEDIATYYCQQADNHPPWTFGGGTKVEIK | 0.302 nM | 2.083 fold | 0.145 nM | – | 0.027 nM | 3.00 fold | 0.009 nM | –
Ab24: monoclonal antibody; VH SEQ ID NO: 132, VL SEQ ID NO: 15 (antibody, V domains shown) VH: EVQLVESGGGLVQPGRSLRLSCAASGFTFSSFAMYWVRQAPGKGLEWVSYISPDASTIYYADSVKGRFTISRDNAKNSLYLQMNSLRAEDTAVYYCARGVLDYGDMLDPWGQGTLVTVSS VL: DIQMTQSPSSLSASVGDRVTITCQASQDITNYLNWYQQKPGKAPKLLIYDASNLETGVPSRFSGSGSGTDFTFTISSLQPEDIATYYCQQADNHPPWTFGGGTKVEIK | 0.537 nM | 2.421 fold | 0.222 nM | – | 0.1 nM | 4.35 fold | 0.023 nM | –
Ab26: monoclonal antibody; VH SEQ ID NO: 134, VL SEQ ID NO: 15 (antibody, V domains shown) VH: EVQLVESGGGLVQPGGSLRLSCAASGFTFSSFSMDWVRQAPGKGLEWVSYISPDASTIYYADSVKGRFTISRDNAKNTLYLQMNSLRAEDTAVYYCARGVLDYGDMLDPWGQGTLVTVSS VL: DIQMTQSPSSLSASVGDRVTITCQASQDITNYLNWYQQKPGKAPKLLIYDASNLETGVPSRFSGSGSGTDFTFTISSLQPEDIATYYCQQADNHPPWTFGGGTKVEIK | 0.492 nM | 2.500 fold | 0.197 nM | – | 0.072 nM | 2.77 fold | 0.026 nM | –
Ab29: monoclonal antibody; VH SEQ ID NO: 137, VL SEQ ID NO: 15 (antibody, V domains shown) VH: EVQLVESGGGLVQPGRSLRLSCAASGFTFSSFAMNWVRQAPGKGLEWVSYISPDASTIYYAGSVKGRFTISRDNAKNSLYLQMNSLRAEDTAVYYCVRAVLDYGDMLDPWGQGTLVTVSS VL: DIQMTQSPSSLSASVGDRVTITCQASQDITNYLNWYQQKPGKAPKLLIYDASNLETGVPSRFSGSGSGTDFTFTISSLQPEDIATYYCQQADNHPPWTFGGGTKVEIK | 0.304 nM | 1.965 fold | 0.155 nM | – | 0.024 nM | 2.00 fold | – | –
Ab32: monoclonal antibody; VH SEQ ID NO: 140, VL SEQ ID NO: 15 (antibody, V domains shown) VH: EVQLVESGGGLVQPGGSLRLSCAASGFTFSSFSMNWVRQAPGKGLEWVSYISPSADTIYYADSVKGRFTISRDNAKNTLYLQMNSLRAEDTAVYYCARGVWDMGDMLDPWGQGTLVTVSS VL: DIQMTQSPSSLSASVGDRVTITCQASQDITNYLNWYQQKPGKAPKLLIYDASNLETGVPSRFSGSGSGTDFTFTISSLQPEDIATYYCQQADNHPPWTFGGGTKVEIK | 0.597 nM | 2.467 fold | 0.242 nM | – | 0.051 nM | 1.60 fold | 0.032 nM | –
Ab31: monoclonal antibody; VH SEQ ID NO: 139, VL SEQ ID NO: 15 (antibody, V domains shown) VH: EVQLVESGGGLVQPGGSLRLSCAASGFTFSSFSMDWVRQAPGKGLEWVSYISPDASTIYYADSVKGRFTISRDNAKNTLYLQMNSLRAEDTAVYYCARAVLDYGDMLDPWGQGTLVTVSS VL: DIQMTQSPSSLSASVGDRVTITCQASQDITNYLNWYQQKPGKAPKLLIYDASNLETGVPSRFSGSGSGTDFTFTISSLQPEDIATYYCQQADNHPPWTFGGGTKVEIK | 0.495 nM | 2.376 fold | 0.208 nM | – | 0.058 nM | 3.41 fold | 0.017 nM | –

— patent US11130803B2, “Isoform-selective TGFβ1 inhibitors and use thereof” (Scholar Rock, Inc., priority 2018, dated 2021)
